How the values were obtained:
Assay type in all cases: binding
[1] = biological target: T1, pSYK in PHTX 95L xenografts (Homo sapiens, UniProt P43405); assay: Quantitative pSYK IHC on PHTX 95L xenografts (Positive Pixel Count)
T1 construct: from tissue; host or cells: FFPE sections of PHTX-95L primary human lymphoma xenografts grown in NOD SCID mice
Description: Final selection of antibody was performed by qualitative and quantitative assessment of IHC results of staining pSYK in PHTX 95L xenografts from untreated or SYK inhibitor-treated mice described above using the Ventana Discovery XT autostainer and the same staining protocols as previous assays (see FIG. 2).
Quantitative analysis was performed with Aperio Spectrum analysis following Postitive Pixel Count v9 Algorithm at 20× magnification. The Positive pixel analysis was used rather than a signal-to-noise ratio because of program difficulties defining true cytoplasmic staining from background for positive amounts below 5%. The table below has the results of the quantitive analysis.

[2] = biological target: T2, pSYK Y525/6 in DLBCL tissue biopsies (Homo sapiens, UniProt P43405); assay: IHC on recently biopsied DLBCL tissues
T2 construct: from tissue; host or cells: FFPE human DLBCL biopsies; one normal lymph node

[3] = biological target: T3, pSYK in PHTX95L xenograft (Homo sapiens, UniProt P43405); assay: IHC on Leica BOND RX, PHTX95L xenograft background; details: MIL81-1-8 at 1:3200, 2175 at 1:25
T3 construct: from tissue; host or cells: FFPE sections of PHTX-95L primary human lymphoma xenografts grown in NOD SCID mice
Description: Similar results were obtained with the MIL81-1-8 subclone using an automated protocol on a Leica automated stainer. pSYK protein levels in Formalin-Fixed, Paraffin-Embedded tissues were incubated with MIL81-1-8 antibody ([…]) for 30 minutes on the Leica Microsystems (Wetzlar, Germany) BOND RX automated stainer. Antibodies were incubated with a rabbit anti-goat HRP secondary antibody (Leica Laboratories) and developed with the 3,3′-diaminobexidine (DAB) substrate map system. Slides were counterstained with hematoxylin and imaged using the Aperio whole slide scanning system (XT). MIL81-1-8 antibody was compared to commercial pSYK antibody Epitomics pSYK Catalog No. 2175-1 (Y525/526) for staining specificity. […] A detectable trend toward reduction of pSYK staining also was seen by the anti-pSYK MIL81-1-8 antibody in medium- and low-expressing xenograft samples from mice treated with a SYK inhibitor (FIGS. 5 to 7).

[4] = biological target: T4, pSYK in pervanadate-treated WSU-DLCL cells, PHTX-95L xenograft, DLBCL TMA core, normal spleen (Homo sapiens, UniProt P43405); assay: Validation of MIL81-1-8 IHC specificity
T4 construct: from tissue; host or cells: pellet of pervanadate-treated WSU-DLCL cells; PHTX-95L xenograft; DLBCL tissue microarray core; normal spleen
Description: Validation of the specificity MIL81-1-8 on lymphoma cells used a pellet of pervanadate-treated WSU-DLCL cells, PHTX-95L xenograft or a TMA core of a DLBCL tumor. When peptide immunogen was added to the antibody prior to incubation with the tissue, the pSYK IHC staining was blocked (FIG. 9). Another validation of the specificity of MIL81-1-8 staining used phosphatase treatment of the slides prior to antibody incubation. […] Due to this nuclear staining of phosphatase-treated samples, staining of only nuclei in samples was generally judged to be off-target and thus pSYK-negative.

[5] = biological target: T5, pSYK in HBL1 and Ly10 xenografts (Homo sapiens, UniProt P43405); assay: IHC on medium- and low-expressing xenografts
T5 construct: from tissue; host or cells: FFPE HBL1 and OCI-LY10 xenografts in SCID mice
Description: An IHC assay using the MIL81-1-8 antibody was developed to evaluate pSYK expression in HBL1 xenograft tissue and several primary human tissue xenografts (PHTX-95L, OCI LY10) derived from diffuse large B-cell lymphoma (DLBCL) patient samples in female SCID mice. pSYK protein levels in Formalin-Fixed, Paraffin-Embedded (FFPE) tissues were assessed on […] thick sections and incubated with MIL81-1-8 antibody ([…]) for 1 hour on the Ventana Medical Systems (Tucson, Ariz.) Discovery XT automated stainer. Antibodies were incubated with OmniMap goat anti-rabbit HRP secondary antibody (Ventana Medical Systems) for 16 minutes and developed with the 3,3′-diaminobexidine (DAB) substrate map system. Slides were counterstained with hematoxylin and imaged using the Aperio whole slide scanning system (XT).
Similar results were obtained with the MIL81-1-8 subclone using an automated protocol on a Leica automated stainer. pSYK protein levels in Formalin-Fixed, Paraffin-Embedded tissues were incubated with MIL81-1-8 antibody ([…]) for 30 minutes on the Leica Microsystems (Wetzlar, Germany) BOND RX automated stainer. Antibodies were incubated with a rabbit anti-goat HRP secondary antibody (Leica Laboratories) and developed with the 3,3′-diaminobexidine (DAB) substrate map system. Slides were counterstained with hematoxylin and imaged using the Aperio whole slide scanning system (XT). […]

B1: Subclone 1-8: rabbit monoclonal anti-pSYK Y525/526 antibody from hybridoma subclone of multiclone 81-1 (antibody)
heavy: QSVEESGGRLVTPGTPLTLTCTVSGIDLNSYIMSWVRQAPGKGLEWIGIISRRGNTYYASWPKGRFTISKTSTTVDLKITSPTTEDTATYFCARAYLYTSGTMSVWGPGTLVTVSSGQPKAPSVFPLAPCCGDTPSSTVTLGCLVKGYLPEPVTVTWNSGTLTNGVRTFPSVRQSSGLYSLSSVVSVTSSSQPVTCNVAHPATNTKVDKTVAPSTCSKPTCPPPELLGGPSVFIFPPKPKDTLMISRTPEVTCVVVDVSQDDPEVQFTWYINNEQVRTARPPLREQQFNSTIRVVSTLPIAHQDWLRGKEFKCKVHNKALPAPIEKTISKARGQPLEPKVYTMGPPREELSSRSVSLTCMINGFYPSDISVEWEKNGKAEDNYKTTPAVLDSDGSYFLYSKLSVPTSEWQRGDVFTCSVMHEALHNHYTQKSISRSPGK
light: ADIVMTQTPSPVEAAVGGTVTIKCQASESISSYLSWYQQKPGQPPKLLIYRASTLVSGVPSRFKGSGSGTDFTLTISDLECADAATYYCQHTYFGSDYVGGFGGGTEVVVKGDPVAPTVLIFPPAADQVATGTVTIVCVANKYFPDVTVTWEVDGTTQTTGIENSKTPQNSADCTYNLSSTLTLTSTQYNSHKEYTCKVTQGTTSVVQSFNRGDC
[1]; 20× magnification, Positive Pixel Count v9
  ratio of Percent Positive Pixel per total Pixel, PHTX 95L Untreated: 25.19%
[1]; mice treated with SYK inhibitor (Compound A), 20× magnification
  ratio of Percent Positive Pixel per total Pixel, PHTX95L SYK Inhibitor: 11.30%
[1]; stains of PHTX-95L xenografts, intensity and signal to noise ratio, listed as MIL81-1-8
  IHC performance compared with Epitomics 2175-1: performing best and best
[2]
  Staining in recently biopsied DLBCL tissues versus Epitomics 2175-1: much stronger and cleaner
[3]
  IHC background: minimal background
[4]; except nuclear staining of normal spleen
  pSYK IHC staining after phosphatase treatment of slides: eliminated epitopes
[4]; peptide blocking
  pSYK IHC staining after adding peptide immunogen to the antibody: blocked
[5]
  Detection of pSYK / distinction of untreated and Syk-inhibitor treated tumors: able to specifically detect

— US20180066068A9, “ANTI-PSYK ANTIBODY MOLECULES AND USE OF SAME FOR SYK-TARGETED THERAPY” (Millennium Pharmaceuticals, Inc., priority 2014, published 2018)
